{"source": "patent US20170334973A1", "key": {"RESTV GP (Reston virus) [1]": {"biological_target": "RESTV GP (Reston virus) (UniProt Q66799)"}, "SUDV GPdTM (Sudan virus) [2]": {"biological_target": "SUDV GPdTM (Sudan virus) (UniProt Q66814)"}, "EBOV GPdTM (Ebola virus) [3]": {"biological_target": "EBOV GPdTM (Ebola virus) (UniProt Q05320)"}, "SUDV GPdTM (Sudan virus) [4]": {"biological_target": "SUDV GPdTM (Sudan virus) (UniProt Q66814)", "remark": "listed apart in the source"}, "EBOV GPdTM (Ebola virus) [5]": {"biological_target": "EBOV GPdTM (Ebola virus) (UniProt Q05320)", "remark": "listed apart in the source"}, "RESTV GP (Reston virus) [6]": {"biological_target": "RESTV GP (Reston virus) (UniProt Q66799)", "remark": "listed apart in the source"}, "SUDV GPdTM (Sudan virus) [7]": {"biological_target": "SUDV GPdTM (Sudan virus) (UniProt Q66814)", "remark": "listed apart in the source"}, "EBOV GPdTM (Ebola virus) [8]": {"biological_target": "EBOV GPdTM (Ebola virus) (UniProt Q05320)", "remark": "listed apart in the source"}}, "note": "pEC50: −log10 of the molar value. Like-named read-outs stand apart in the source and are kept apart here.", "data": [{"substance": "FVM09 (antibody)", "values": [{"measurement": "EC50", "setting": "RESTV GP (Reston virus) [1]", "result": "< 0.015", "unit": "µg/mL"}, {"measurement": "EC50", "setting": "SUDV GPdTM (Sudan virus) [2]", "result": "< 0.015", "unit": "µg/mL"}, {"measurement": "EC50", "setting": "EBOV GPdTM (Ebola virus) [3]", "result": "< 0.015", "unit": "µg/mL"}, {"measurement": "pEC50", "setting": "SUDV GPdTM (Sudan virus) [4]", "result": 8.01}, {"measurement": "pEC50", "setting": "EBOV GPdTM (Ebola virus) [5]", "result": 8.14}, {"measurement": "EC50", "setting": "RESTV GP (Reston virus) [6]", "result": 0.01, "unit": "µg/mL"}, {"measurement": "EC50", "setting": "SUDV GPdTM (Sudan virus) [7]", "result": 0.011, "unit": "µg/mL"}, {"measurement": "EC50", "setting": "EBOV GPdTM (Ebola virus) [8]", "result": 0.008, "unit": "µg/mL"}]}]}
